From article PMC9482650, “Quantitative fragmentomics allow affinity mapping of interactomes” (Nature Communications, 2022)

T1: LIN7B, Q9HAP6
T1 sequence (Q9HAP6 88-185, limits assumed, looked up): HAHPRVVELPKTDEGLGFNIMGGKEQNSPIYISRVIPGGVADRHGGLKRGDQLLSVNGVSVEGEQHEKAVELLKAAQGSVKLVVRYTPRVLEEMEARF

T2: SYNJ2BP, P57105
T2 sequence (P57105 8-110, limits assumed, looked up): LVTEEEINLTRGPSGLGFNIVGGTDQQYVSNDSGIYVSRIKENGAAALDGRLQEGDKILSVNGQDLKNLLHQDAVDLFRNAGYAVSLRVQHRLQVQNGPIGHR

T3: ARHGAP21, Q5T5U3
T3 sequence (Q5T5U3 45-169, limits assumed, looked up): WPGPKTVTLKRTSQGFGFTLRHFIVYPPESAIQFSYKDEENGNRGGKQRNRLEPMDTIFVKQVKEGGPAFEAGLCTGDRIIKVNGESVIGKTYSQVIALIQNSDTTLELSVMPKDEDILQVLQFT

T4: GRIP1_3, Q9Y3R0
T4 sequence (Q9Y3R0 247-346, limits assumed, looked up): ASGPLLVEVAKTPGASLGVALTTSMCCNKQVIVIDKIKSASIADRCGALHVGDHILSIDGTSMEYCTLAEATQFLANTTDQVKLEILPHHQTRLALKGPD

T5: MPP7, Q5T2T1
T5 sequence (Q5T2T1 134-230, limits assumed, looked up): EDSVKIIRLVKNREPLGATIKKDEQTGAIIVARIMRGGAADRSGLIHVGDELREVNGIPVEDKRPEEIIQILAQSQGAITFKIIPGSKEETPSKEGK

T6: HTRA4, P83105
T6 sequence (P83105 378-476, limits assumed, looked up): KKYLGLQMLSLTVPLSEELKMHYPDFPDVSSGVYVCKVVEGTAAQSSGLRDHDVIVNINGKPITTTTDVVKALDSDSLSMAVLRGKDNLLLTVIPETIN

T7: PDZRN3_1, Q9UPQ7
T7 sequence (Q9UPQ7 244-349, limits assumed, looked up): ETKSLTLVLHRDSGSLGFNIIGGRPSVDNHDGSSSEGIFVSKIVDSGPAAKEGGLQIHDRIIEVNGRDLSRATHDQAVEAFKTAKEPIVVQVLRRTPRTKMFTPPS

T8: NHERF3_1, Q5T2W1
T8 sequence (Q5T2W1 4-100, limits assumed, looked up): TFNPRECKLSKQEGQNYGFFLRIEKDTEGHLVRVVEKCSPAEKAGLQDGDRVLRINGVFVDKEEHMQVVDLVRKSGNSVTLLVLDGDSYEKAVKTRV

T9: MPP6, Q9NZW5
T9 sequence (Q9NZW5 125-219, limits assumed, looked up): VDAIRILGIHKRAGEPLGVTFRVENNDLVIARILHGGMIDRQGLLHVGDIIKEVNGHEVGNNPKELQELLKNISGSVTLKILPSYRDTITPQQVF

T10: DLG3_2, Q92796
T10 sequence (Q92796 221-321, limits assumed, looked up): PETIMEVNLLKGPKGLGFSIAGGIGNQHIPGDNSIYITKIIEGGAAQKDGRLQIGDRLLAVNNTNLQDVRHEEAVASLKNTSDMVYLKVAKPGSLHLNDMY

T11: SNTG1, Q9NSN8
T11 sequence (Q9NSN8 52-150, limits assumed, looked up): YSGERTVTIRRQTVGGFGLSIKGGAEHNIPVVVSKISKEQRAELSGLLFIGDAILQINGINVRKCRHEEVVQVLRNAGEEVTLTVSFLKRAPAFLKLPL

T12: DFNB31_2, Q9P202
T12 sequence (Q9P202 274-371, limits assumed, looked up): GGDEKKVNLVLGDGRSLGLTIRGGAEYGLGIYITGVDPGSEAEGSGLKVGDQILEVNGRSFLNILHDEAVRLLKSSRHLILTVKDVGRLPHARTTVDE

B1: SMCHD1, A6NHR9 (peptide)
chain: QNRIITKTDV
B2: NOS1AP, O75052 (peptide)
chain: GDGLDDEIAV
B3: UNC93A, Q86WB7 (peptide)
chain: AEDEEIQTKM
B4: FZD8, Q9H461 (peptide)
chain: YPKQMPLSQV
B5: NECTIN3, Q9NQS3 (peptide)
chain: SVISRREWYV
B6: UQCRC2, P22695 (peptide)
chain: LGHTPFVDEL

Molecular target: T1, LIN7B, Q9HAP6
Experiment: holdup assay
Set-up: key: below the threshold = too weak to quantify, mostly under pKd 3.1 to 4
Details: plain residues with an end cap or a label only (N-terminal biotin on a linker: ado-ado)

pKd	Binder
below the threshold	B1
3.52	B2
below the threshold	B3
below the threshold	B4
below the threshold	B5
below the threshold	B6

Molecular target: T2, SYNJ2BP, P57105
Experiment: holdup assay
Set-up: key: below the threshold = too weak to quantify, mostly under pKd 3.1 to 4
Details: plain residues with an end cap or a label only (N-terminal biotin on a linker: ado-ado)

pKd	Binder
4.24	B1
below the threshold	B2
below the threshold	B3
below the threshold	B4
3.55	B5
4	B6

Molecular target: T3, ARHGAP21, Q5T5U3
Experiment: holdup assay
Set-up: key: below the threshold = too weak to quantify, mostly under pKd 3.1 to 4
Details: plain residues with an end cap or a label only (N-terminal biotin on a linker: ado-ado)

pKd	Binder
4.04	B1
4.51	B2
3.9	B3
3.94	B4
4.29	B5
3.91	B6

Molecular target: Inadl_6, Q8NI35
Sequence (Q8NI35 1058-1167): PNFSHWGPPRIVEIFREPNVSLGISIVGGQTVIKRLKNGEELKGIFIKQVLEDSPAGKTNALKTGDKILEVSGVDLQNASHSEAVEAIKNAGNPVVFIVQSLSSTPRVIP
Experiment: holdup assay
Set-up: key: below the threshold = too weak to quantify, mostly under pKd 3.1 to 4
Details: plain residues with an end cap or a label only (N-terminal biotin on a linker: ado-ado)

pKd	Binder
below the threshold	B1
below the threshold	B2
below the threshold	B3
below the threshold	B4
below the threshold	B5
below the threshold	B6

Molecular target: MAGI1_2, Q96QZ7
Sequence (Q96QZ7 456-580): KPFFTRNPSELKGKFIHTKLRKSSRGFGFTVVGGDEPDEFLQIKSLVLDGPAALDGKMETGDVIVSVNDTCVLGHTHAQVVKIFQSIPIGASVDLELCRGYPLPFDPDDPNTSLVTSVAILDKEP
Experiment: holdup assay
Set-up: key: below the threshold = too weak to quantify, mostly under pKd 3.1 to 4
Details: plain residues with an end cap or a label only (N-terminal biotin on a linker: ado-ado)

pKd	Binder
3.99	B1
below the threshold	B2
below the threshold	B3
3.55	B4
4.78	B5
below the threshold	B6

Molecular target: T4, GRIP1_3, Q9Y3R0
Experiment: holdup assay
Set-up: key: below the threshold = too weak to quantify, mostly under pKd 3.1 to 4
Details: plain residues with an end cap or a label only (N-terminal biotin on a linker: ado-ado)

pKd	Binder
below the threshold	B1
below the threshold	B2
below the threshold	B3
below the threshold	B4
below the threshold	B5
below the threshold	B6

Molecular target: T5, MPP7, Q5T2T1
Experiment: holdup assay
Set-up: key: below the threshold = too weak to quantify, mostly under pKd 3.1 to 4
Details: plain residues with an end cap or a label only (N-terminal biotin on a linker: ado-ado)

pKd	Binder
below the threshold	B1
below the threshold	B2
below the threshold	B3
below the threshold	B4
4.93	B5
below the threshold	B6

Molecular target: T6, HTRA4, P83105
Experiment: holdup assay
Set-up: key: below the threshold = too weak to quantify, mostly under pKd 3.1 to 4
Details: plain residues with an end cap or a label only (N-terminal biotin on a linker: ado-ado)

pKd	Binder
below the threshold	B1
3.9	B2
3.8	B3
3.94	B4
3.86	B5
3.98	B6

Molecular target: T7, PDZRN3_1, Q9UPQ7
Experiment: holdup assay
Set-up: key: below the threshold = too weak to quantify, mostly under pKd 3.1 to 4
Details: plain residues with an end cap or a label only (N-terminal biotin on a linker: ado-ado)

pKd	Binder
below the threshold	B1
below the threshold	B2
below the threshold	B3
below the threshold	B4
below the threshold	B5
below the threshold	B6

Molecular target: Inadl_10, Q8NI35
Sequence (Q8NI35 1673-1763): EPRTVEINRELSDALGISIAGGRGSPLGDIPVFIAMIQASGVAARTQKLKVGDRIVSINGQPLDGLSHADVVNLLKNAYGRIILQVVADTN
Experiment: holdup assay
Set-up: key: below the threshold = too weak to quantify, mostly under pKd 3.1 to 4
Details: plain residues with an end cap or a label only (N-terminal biotin on a linker: ado-ado)

pKd	Binder
below the threshold	B1
below the threshold	B2
below the threshold	B3
below the threshold	B4
below the threshold	B5
below the threshold	B6

Molecular target: Inadl_2, Q8NI35
Sequence (Q8NI35 238-335): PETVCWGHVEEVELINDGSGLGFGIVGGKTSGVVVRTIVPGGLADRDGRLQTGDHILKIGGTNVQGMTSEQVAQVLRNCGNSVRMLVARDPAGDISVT
Experiment: holdup assay
Set-up: key: below the threshold = too weak to quantify, mostly under pKd 3.1 to 4
Details: plain residues with an end cap or a label only (N-terminal biotin on a linker: ado-ado)

pKd	Binder
below the threshold	B1
3.99	B2
below the threshold	B3
below the threshold	B4
4.91	B5
below the threshold	B6

Molecular target: GRIP2_5, Q9C0E4
Sequence (Q9C0E4 544-642): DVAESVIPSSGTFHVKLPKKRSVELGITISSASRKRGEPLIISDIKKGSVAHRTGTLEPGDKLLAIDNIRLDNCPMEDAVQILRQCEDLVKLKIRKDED
Experiment: holdup assay
Set-up: key: below the threshold = too weak to quantify, mostly under pKd 3.1 to 4
Details: plain residues with an end cap or a label only (N-terminal biotin on a linker: ado-ado)

pKd	Binder
below the threshold	B1
below the threshold	B2
below the threshold	B3
below the threshold	B4
below the threshold	B5
below the threshold	B6

Molecular target: T8, NHERF3_1, Q5T2W1
Experiment: holdup assay
Set-up: key: below the threshold = too weak to quantify, mostly under pKd 3.1 to 4
Details: plain residues with an end cap or a label only (N-terminal biotin on a linker: ado-ado)

pKd	Binder
below the threshold	B1
below the threshold	B2
5.39	B3
below the threshold	B4
4.52	B5
4.73	B6

Molecular target: GIPC2, Q8TF65
Sequence (Q8TF65 112-203): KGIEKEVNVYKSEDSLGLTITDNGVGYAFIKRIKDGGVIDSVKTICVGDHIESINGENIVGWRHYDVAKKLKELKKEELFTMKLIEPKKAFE
Experiment: holdup assay
Set-up: key: below the threshold = too weak to quantify, mostly under pKd 3.1 to 4
Details: plain residues with an end cap or a label only (N-terminal biotin on a linker: ado-ado)

pKd	Binder
below the threshold	B1
below the threshold	B2
below the threshold	B3
below the threshold	B4
below the threshold	B5
below the threshold	B6

Molecular target: MAGI2_5, Q86UL8
Sequence (Q86UL8 915-1017): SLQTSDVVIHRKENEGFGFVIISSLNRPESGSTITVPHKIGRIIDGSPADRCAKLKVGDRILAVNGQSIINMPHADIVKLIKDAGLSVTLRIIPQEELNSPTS
Experiment: holdup assay
Set-up: key: below the threshold = too weak to quantify, mostly under pKd 3.1 to 4
Details: plain residues with an end cap or a label only (N-terminal biotin on a linker: ado-ado)

pKd	Binder
below the threshold	B1
below the threshold	B2
below the threshold	B3
below the threshold	B4
below the threshold	B5
3.47	B6

Molecular target: T9, MPP6, Q9NZW5
Experiment: holdup assay
Set-up: key: below the threshold = too weak to quantify, mostly under pKd 3.1 to 4
Details: plain residues with an end cap or a label only (N-terminal biotin on a linker: ado-ado)

pKd	Binder
below the threshold	B1
below the threshold	B2
below the threshold	B3
below the threshold	B4
4.48	B5
below the threshold	B6

Molecular target: T10, DLG3_2, Q92796
Experiment: holdup assay
Set-up: key: below the threshold = too weak to quantify, mostly under pKd 3.1 to 4
Details: plain residues with an end cap or a label only (N-terminal biotin on a linker: ado-ado)

pKd	Binder
4.08	B1
4.01	B2
below the threshold	B3
below the threshold	B4
3.66	B5
3.48	B6

Molecular target: FRMPD2_3, Q68DX3
Sequence (Q68DX3 1073-1166): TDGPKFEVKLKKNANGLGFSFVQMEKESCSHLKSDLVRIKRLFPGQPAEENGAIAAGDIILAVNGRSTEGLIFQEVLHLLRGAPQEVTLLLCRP
Experiment: holdup assay
Set-up: key: below the threshold = too weak to quantify, mostly under pKd 3.1 to 4
Details: plain residues with an end cap or a label only (N-terminal biotin on a linker: ado-ado)

pKd	Binder
below the threshold	B1
3.82	B2
below the threshold	B3
below the threshold	B4
4.44	B5
below the threshold	B6

Molecular target: MAGI3_2, Q5TCQ9
Sequence (Q5TCQ9 398-503): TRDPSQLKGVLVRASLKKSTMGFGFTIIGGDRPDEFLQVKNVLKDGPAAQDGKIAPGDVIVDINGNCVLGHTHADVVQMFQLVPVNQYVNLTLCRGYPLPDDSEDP
Experiment: holdup assay
Set-up: key: below the threshold = too weak to quantify, mostly under pKd 3.1 to 4
Details: plain residues with an end cap or a label only (N-terminal biotin on a linker: ado-ado)

pKd	Binder
4.15	B1
3.98	B2
below the threshold	B3
4.44	B4
5.74	B5
below the threshold	B6

Molecular target: LDB3, O75112
Sequence (O75112 1-94): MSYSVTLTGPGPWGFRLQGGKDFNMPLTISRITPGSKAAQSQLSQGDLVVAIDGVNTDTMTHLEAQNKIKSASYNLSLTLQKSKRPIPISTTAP
Experiment: holdup assay
Set-up: key: below the threshold = too weak to quantify, mostly under pKd 3.1 to 4
Details: plain residues with an end cap or a label only (N-terminal biotin on a linker: ado-ado)

pKd	Binder
below the threshold	B1
below the threshold	B2
below the threshold	B3
below the threshold	B4
below the threshold	B5
below the threshold	B6

Molecular target: GRIP2_7, Q9C0E4
Sequence (Q9C0E4 934-1023): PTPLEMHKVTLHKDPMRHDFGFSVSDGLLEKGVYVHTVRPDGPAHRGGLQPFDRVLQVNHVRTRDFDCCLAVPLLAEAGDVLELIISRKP
Experiment: holdup assay
Set-up: key: below the threshold = too weak to quantify, mostly under pKd 3.1 to 4
Details: plain residues with an end cap or a label only (N-terminal biotin on a linker: ado-ado)

pKd	Binder
below the threshold	B1
below the threshold	B2
below the threshold	B3
below the threshold	B4
5.47	B5
below the threshold	B6

Molecular target: PICK1, Q9NRD5
Sequence (Q9NRD5 17-115): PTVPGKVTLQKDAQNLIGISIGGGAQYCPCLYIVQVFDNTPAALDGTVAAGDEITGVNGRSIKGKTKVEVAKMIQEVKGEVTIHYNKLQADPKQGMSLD
Experiment: holdup assay
Set-up: key: below the threshold = too weak to quantify, mostly under pKd 3.1 to 4
Details: plain residues with an end cap or a label only (N-terminal biotin on a linker: ado-ado)

pKd	Binder
below the threshold	B1
4.38	B2
4.11	B3
below the threshold	B4
below the threshold	B5
4.09	B6

Molecular target: T11, SNTG1, Q9NSN8
Experiment: holdup assay
Set-up: key: below the threshold = too weak to quantify, mostly under pKd 3.1 to 4
Details: plain residues with an end cap or a label only (N-terminal biotin on a linker: ado-ado)

pKd	Binder
3.48	B1
below the threshold	B2
below the threshold	B3
4.04	B4
3.79	B5
below the threshold	B6

Molecular target: T12, DFNB31_2, Q9P202
Experiment: holdup assay
Set-up: key: below the threshold = too weak to quantify, mostly under pKd 3.1 to 4
Details: plain residues with an end cap or a label only (N-terminal biotin on a linker: ado-ado)

pKd	Binder
below the threshold	B1
below the threshold	B2
below the threshold	B3
below the threshold	B4
below the threshold	B5
below the threshold	B6
